Experimental data taken from the Immune Epitope Database (IEDB).

Columns and labels:
[1] = target: HLA-B*46:01; test: IEDB peptide-MHC binding, purified MHC/competitive/fluorescence; filed as Kd, often an IC50 or EC50 that approximates it; ≥ and ≤ were set here for values at or beyond the usual limits of such assays
[2] = target: HLA-B*58:01; test: IEDB peptide-MHC binding, purified MHC/direct/fluorescence; filed as Kd, often an IC50 or EC50 that approximates it; ≥ and ≤ were set here for values at or beyond the usual limits of such assays
[3] = target: HLA-B*57:01; test: as above; conditions: source organism: Vibrio vulnificus
[4] = target: HLA-B*44:03; test: IEDB peptide-MHC binding, purified MHC/competitive/radioactivity; filed as Kd, often an IC50 or EC50 that approximates it; ≥ and ≤ were set here for values at or beyond the usual limits of such assays
[5] = target: HLA-B*40:01; test: as above
[6] = target: HLA-B*15:03; test: as above; conditions: source organism: Vaccinia virus WR
[7] = target: HLA-A*69:01; test: IEDB peptide-MHC binding, purified MHC/direct/fluorescence; filed as Kd, often an IC50 or EC50 that approximates it; ≥ and ≤ were set here for values at or beyond the usual limits of such assays
[8] = target: HLA-B*27:05; test: as above
[9] = target: HLA-A*26:01; test: as above
[10] = target: HLA-B*40:01; test: as above
[11] = target: HLA-A*02:01; test: as above
[12] = target: HLA-B*44:02; test: as above
[13] = target: HLA-A*03:01; test: as above
[14] = target: HLA-B*08:01; test: as above
[15] = target: HLA-A*24:03; test: as above
[16] = target: HLA-B*07:02; test: as above
[17] = target: HLA-A*01:01; test: as above
[18] = target: HLA-A*31:01; test: as above; conditions: source organism: Yersinia pestis Nepal516
[19] = target: HLA-A*11:01; test: as above
[20] = target: HLA-B*15:01; test: as above; conditions: source organism: Yersinia pestis Nepal516
[21] = target: HLA-A*29:02; test: IEDB peptide-MHC binding, purified MHC/competitive/radioactivity; filed as Kd, often an IC50 or EC50 that approximates it; ≥ and ≤ were set here for values at or beyond the usual limits of such assays; conditions: source organism: Mammarenavirus tacaribeense
[22] = target: HLA-A*23:01; test: as above
[23] = target: HLA-A*24:02; test: as above; conditions: source organism: Mammarenavirus tacaribeense
[24] = target: HLA-B*44:02; test: as above
[25] = target: HLA-A*03:01; test: IEDB peptide-MHC binding, purified MHC/competitive/fluorescence; filed as Kd, often an IC50 or EC50 that approximates it; ≥ and ≤ were set here for values at or beyond the usual limits of such assays
[26] = target: HLA-A*30:01; test: IEDB peptide-MHC binding, purified MHC/competitive/radioactivity; filed as Kd, often an IC50 or EC50 that approximates it; ≥ and ≤ were set here for values at or beyond the usual limits of such assays; conditions: source organism: Vaccinia virus WR
[27] = target: HLA-B*08:01; test: as above; conditions: source organism: Vaccinia virus WR
[28] = target: HLA-A*32:01; test: as above
[29] = target: HLA-B*15:01; test: as above
[30] = target: HLA-B*18:01; test: IEDB peptide-MHC binding, purified MHC/direct/fluorescence; filed as Kd, often an IC50 or EC50 that approximates it; ≥ and ≤ were set here for values at or beyond the usual limits of such assays
[31] = target: HLA-A*26:01; test: IEDB peptide-MHC binding, purified MHC/competitive/fluorescence; filed as Kd, often an IC50 or EC50 that approximates it; ≥ and ≤ were set here for values at or beyond the usual limits of such assays; conditions: source organism: Kurkino virus
[32] = source organism: Dengue virus 2 Jamaica/1409/1983
[33] = source organism: Yersinia pestis Nepal516
[34] = source organism: Dengue virus 3 Martinique/1243/1999
[35] = source organism: Dengue virus 1 Brazil/97-11/1997
[36] = source organism: Vaccinia virus WR
[37] = source organism: Salmonella enterica
[38] = source organism: Vibrio parahaemolyticus

LAFSTRFSF
Kd ([1]; source organism: Vibrio vulnificus YJ016): 661 nM | Kd ([2]; source organism: Vibrio vulnificus): 144 nM | Kd [3]: 292 nM

LEFFLIVLLI
Kd [4, 32]: 2480 nM | Kd [5, 32]: 650 nM

LKYYYSNSY
Kd [6]: 0.242 nM

LSEEIGLDL
Kd [7, 33]: ≥ 20000 nM | Kd [8, 33]: ≥ 20000 nM | Kd [9, 33]: ≥ 20000 nM | Kd [2, 33]: ≥ 20000 nM | Kd [10, 33]: ≥ 20000 nM | Kd [11, 33]: ≥ 20000 nM | Kd [12, 33]: ≥ 20000 nM | Kd [13, 33]: ≥ 20000 nM | Kd [14, 33]: ≥ 20000 nM | Kd [15, 33]: ≥ 20000 nM | Kd [16, 33]: ≥ 20000 nM | Kd ([17]; source organism: Yersinia pestis): 6380 nM | Kd [18]: ≥ 20000 nM | Kd [19, 33]: ≥ 20000 nM | Kd [20]: ≥ 20000 nM

LYGLITEQF
Kd [21]: 2070 nM | Kd ([22]; source organism: Mammarenavirus tacaribeense): 3.98 nM | Kd [23]: 15.5 nM | Kd ([15]; source organism: Mammarenavirus machupoense): 0.2 nM

MEEALKGLPI
Kd [4, 34]: 205 nM | Kd [5, 34]: 86.6 nM | Kd [24, 34]: 338 nM

MEHKYSWKS
Kd [4, 35]: 1000 nM

MVFVELPSK
Kd ([25]; source organism: Bacillus anthracis str. A0488): 101 nM

MVRLPYKDA
Kd [26]: 0.763 nM | Kd [27]: ≥ 77700 nM | Kd [6]: ≥ 29900 nM | Kd [28, 36]: ≥ 77800 nM | Kd [29, 36]: ≥ 50700 nM

NERWFREVI
Kd [10, 37]: 653 nM | Kd [30, 37]: 5.2 nM

NSIPAVIGY
Kd [31]: 420 nM

QQVPFCSHHF
Kd [4, 35]: 272 nM | Kd [29, 35]: 13.9 nM

QYDDLHKKF
Kd [7, 38]: ≥ 20000 nM | Kd [8, 38]: ≥ 20000 nM | Kd [9, 38]: ≥ 20000 nM | Kd [2, 38]: ≥ 20000 nM | Kd [10, 38]: ≥ 20000 nM | Kd [11, 38]: ≥ 20000 nM | Kd [12, 38]: ≥ 20000 nM | Kd [13, 38]: ≥ 20000 nM | Kd [14, 38]: ≥ 20000 nM | Kd [15, 38]: 62.6 nM | Kd [16, 38]: ≥ 20000 nM | Kd [17, 38]: ≥ 20000 nM | Kd [19, 38]: ≥ 20000 nM

RLNPMHQLLR
Kd ([25]; source organism: Influenza A virus H3N2): 805 nM

RMKWMMAMRY
Kd ([25]; source organism: Influenza A virus (A/chicken/Fujian/25/00(H9N2))): 131 nM

SEIQLTDYGA
Kd [4, 35]: 42.6 nM | Kd [5, 35]: 972 nM | Kd [24, 35]: 149 nM

SNINDFNIF
Kd [6]: 501 nM

SVYGLMGFH
Kd ([25]; source organism: Canarypox virus): 29.2 nM

TEPEDIDCW
Kd ([24]; source organism: Dengue virus 4 Philippines/H241/1956): 1140 nM

TLYAVATTF
Kd [28, 32]: 81.3 nM | Kd [22, 32]: 134 nM | Kd ([1]; source organism: Dengue virus 2 Thailand/NGS-C/1944): ≥ 20000 nM

VEEDIRWKF
Kd ([30]; source organism: Bacillus cereus): 19.2 nM

VQHNIKHSF
Kd [6]: 0.203 nM
